# Results taken from patent US20260125454A1 (SHANGHAI JUNSHI BIOSCIENCES, published 2026).
# Substitutions are numbered along the chain they refer to.
# T1: Biotin-huCGRPaSA (human, not fully specified; biotin (position not given))
# T1 construct: exact construct ('aSA') not explained; also called Biotin CGRPaSA; full-length (1-37) CGRP
# T1 peptide: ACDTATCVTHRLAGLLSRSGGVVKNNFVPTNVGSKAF
# B1: hu219 (antibody, V domains shown)
# VH: QVQLVQSGAEVKKPGASVKVSCKASGYTFTDYNMHWVRQAPGQGLEWMGYIYPYNGHTVYNQKFRNRVTLTVDTSSSTAYMELRSLRSDDTAVYYCAREGLGGYWGQGTLVTVSS
# VL: DIVLTQSPDSLAVSLGERATINCKASQNIDYDGYTYLNWYQQKPGQPPKVLIYSIFNLESGVPDRFSGSGSGTDFTLTISSLQAEDVAVYYCQQSNEVPYTFGQGTKLEIK
# notes: 3H10 HC-2/3E5 LC-1
# B2: hu210 (antibody, V domains shown)
# VH: B1 VH
# VL: DIVLTQSPASLAVSPGQRATITCKASQNIDYDGYAYLNWYQQKPGQPPKVLIYSVFNLESGVPARFSGSGSGTDFTLTINPVEADDTANYYCQQSNEFPYTFGQGTKLEIK
# notes: 3H10 HC-2/1A2 LC2-2
# B3: hu217 (antibody, V domains shown)
# VH: B1 VH
# VL: DIVLTQSPDSLAVSLGERATINCQASQNIDGNTYMNWYQQKPGQPPKVLIYSIFNLESGVPDRFSGSGSGTDFTLTISSLQAEDVAVYYCQQSNDYPYTFGQGTKLEIK
# notes: 3H10 HC-2/2B8 LC2-1
# B4: hu8 (antibody, V domains shown)
# VH: B1 VH with Y52F, H57V, T58A, Q62R, N66S, V72I
# VL: B1 VL with Y31F, T35A, L37M, Q42H, I55V, N96H
# notes: 1B2 HC-1/1F5 LC1-4
# B5: hu204 (antibody, V domains shown)
# VH: B1 VH with L70M, R98K
# VL: B3 VL
# notes: 3H10 HC-1/2B8 LC2-1
# B6: hu112 (antibody, V domains shown)
# VH: B1 VH with Y50N, H57G, R65N, R84S, S85R
# VL: B1 VL with Y31F, T35A, L37M, Q42H, I55V, N96H
# notes: 2B8 HC1-1/1F5 LC1-4
# B7: hu152 (antibody, V domains shown)
# VH: B1 VH with A24T, G44R, Y52S, H57G, V59A, R65K, N66F, R84S, D89E
# VL: B3 VL
# notes: 3E5 HC-1/2B8 LC2-1
# B8: hu125 (antibody, V domains shown)
# VH: B1 VH with Y50N, H57G, R65N
# VL: B1 VL with Y31F, T35A, L37M, Q42H, I55V, N96H
# notes: 2B8 HC1-2/1F5 LC1-4
# B9: hu139 (antibody, V domains shown)
# VH: B1 VH with Y50N, G56A, H57G, R65N, R84S, S85R
# VL: B3 VL
# notes: 2B8 HC1-3/2B8 LC2-1
# B10: hu191 (antibody, V domains shown)
# VH: B1 VH with A24T, G44R, Y52S, G56A, H57G, V59A, R65K, N66F, R84S, D89E
# VL: B3 VL
# notes: 3E5 HC-4/2B8 LC2-1
# B11: hu116 (antibody, V domains shown)
# VH: B1 VH with Y50N, H57G, R65N, R84S, S85R
# VL: B1 VL with D32G, T35S, L37M, I55V, V98A
# notes: 2B8 HC1-1/3H10 LC2-1
# B12: hu207 (antibody, V domains shown)
# VH: B1 VH with L70M, R98K
# VL: B1 VL with D32G, T35S, L37M, I55V, V98A
# notes: 3H10 HC-1/3H10 LC2-1
# B13: hu113 (antibody, V domains shown)
# VH: B1 VH with Y50N, H57G, R65N, R84S, S85R
# VL: B3 VL
# notes: 2B8 HC1-1/2B8 LC2-1
# B14: hu7 (antibody, V domains shown)
# VH: B1 VH with Y52F, H57V, T58A, Q62R, N66S, V72I
# VL: B2 VL with Y31F, L37M, N96H, F98V
# notes: 1B2 HC-1/1F5 LC1-3
# B15: hu35 (antibody, V domains shown)
# VH: B1 VH with T30I, Y32F, G44R, H57D, T58V, K63N, R65T, R84S, D89E
# VL: B3 VL
# notes: 1F5 HC-1/2B8 LC2-1
# B16: hu180 (antibody, V domains shown)
# VH: B1 VH with Y52S, H57G, V59A, R65K, N66F, R84S, S85R, A92V
# VL: B1 VL
# notes: 3E5 HC-3/3E5 LC-1
# B17: hu48 (antibody, V domains shown)
# VH: B1 VH with Y32F, G44R, H57D, T58V, K63N, R65T, R84S, D89E
# VL: B3 VL
# notes: 1F5 HC-2/2B8 LC2-1
# B18: hu138 (antibody, V domains shown)
# VH: B1 VH with Y50N, G56A, H57G, R65N, R84S, S85R
# VL: B1 VL with Y31F, T35A, L37M, Q42H, I55V, N96H
# notes: 2B8 HC1-3/1F5 LC1-4
# B19: hu22 (antibody, V domains shown)
# VH: B1 VH with G44R, Y52F, H57V, T58A, Q62R, N66S, R84S, D89E
# VL: B3 VL
# notes: 1B2 HC-2/2B8 LC2-1
# B20: hu9 (antibody, V domains shown)
# VH: B1 VH with Y52F, H57V, T58A, Q62R, N66S, V72I
# VL: B3 VL
# notes: 1B2 HC-1/2B8 LC2-1
# B21: hu216 (antibody, V domains shown)
# VH: B1 VH
# VL: B1 VL with Y31F, T35A, L37M, Q42H, I55V, N96H
# notes: 3H10 HC-2/1F5 LC1-4
# B22: hu12 (antibody, V domains shown)
# VH: B1 VH with Y52F, H57V, T58A, Q62R, N66S, V72I
# VL: B1 VL with D32G, T35S, L37M, I55V, V98A
# notes: 1B2 HC-1/3H10 LC2-1
# B23: hu1 (antibody, V domains shown)
# VH: B1 VH with Y52F, H57V, T58A, Q62R, N66S, V72I
# VL: B2 VL with D85N
# notes: 1B2 HC-1/1A2 LC2-1
# B24: hu203 (antibody, V domains shown)
# VH: B1 VH with L70M, R98K
# VL: B1 VL with Y31F, T35A, L37M, Q42H, I55V, N96H
# notes: 3H10 HC-1/1F5 LC1-4
# B25: hu60 (antibody, V domains shown)
# VH: B1 VH with Y32F, H57D, T58V, K63N, R65T
# VL: B1 VL with Y31F, T35A, L37M, Q42H, I55V, N96H
# notes: 1F5 HC-3/1F5 LC1-4
# B26: hu115 (antibody, V domains shown)
# VH: B1 VH with Y50N, H57G, R65N, R84S, S85R
# VL: B1 VL
# notes: 2B8 HC1-1/3E5 LC-1
# B27: hu220 (antibody, V domains shown)
# VH: B1 VH
# VL: B1 VL with D32G, T35S, L37M, I55V, V98A
# notes: 3H10 HC-2/3H10 LC2-1
# B28: hu126 (antibody, V domains shown)
# VH: B1 VH with Y50N, H57G, R65N
# VL: B3 VL
# notes: 2B8 HC1-2/2B8 LC2-1
# B29: hu102 (antibody, V domains shown)
# VH: B1 VH with G44R, I51V, H57G, T58S, V59A, R65K, N66S, R84S, D89E
# VL: B1 VL
# notes: 2A2 HC-1/3E5 LC-1
# B30: hu141 (antibody, V domains shown)
# VH: B1 VH with Y50N, G56A, H57G, R65N, R84S, S85R
# VL: B1 VL
# notes: 2B8 HC1-3/3E5 LC-1
# B31: hu165 (antibody, V domains shown)
# VH: B1 VH with G44R, Y52S, H57G, V59A, R65K, N66F, R84S, D89E
# VL: B3 VL
# notes: 3E5 HC-2/2B8 LC2-1
# B32: hu2 (antibody, V domains shown)
# VH: B1 VH with Y52F, H57V, T58A, Q62R, N66S, V72I
# VL: B2 VL
# notes: 1B2 HC-1/1A2 LC2-2
# B33: hu61 (antibody, V domains shown)
# VH: B1 VH with Y32F, H57D, T58V, K63N, R65T
# VL: B3 VL
# notes: 1F5 HC-3/2B8 LC2-1
# B34: hu206 (antibody, V domains shown)
# VH: B1 VH with L70M, R98K
# VL: B1 VL
# notes: 3H10 HC-1/3E5 LC-1
# B35: hu11 (antibody, V domains shown)
# VH: B1 VH with Y52F, H57V, T58A, Q62R, N66S, V72I
# VL: B1 VL
# notes: 1B2 HC-1/3E5 LC-1
# B36: hu24 (antibody, V domains shown)
# VH: B1 VH with G44R, Y52F, H57V, T58A, Q62R, N66S, R84S, D89E
# VL: B1 VL
# notes: 1B2 HC-2/3E5 LC-1
# B37: hu178 (antibody, V domains shown)
# VH: B1 VH with Y52S, H57G, V59A, R65K, N66F, R84S, S85R, A92V
# VL: B3 VL
# notes: 3E5 HC-3/2B8 LC2-1
# B38: hu142 (antibody, V domains shown)
# VH: B1 VH with Y50N, G56A, H57G, R65N, R84S, S85R
# VL: B1 VL with D32G, T35S, L37M, I55V, V98A
# notes: 2B8 HC1-3/3H10 LC2-1
# Molecular target: T1, Biotin-huCGRPaSA
# Test: ELISA, supernatant; relative to chimeric C245
# Protocol: Biotin CGRPaSA was diluted with PBS (Hyclone) to 1.0 μg/mL, and the dilution was added to a microplate at 100 μL/well. The plate was let stand in an incubator at 37° C. and coated for 90 min and then washed, and 2% BSA was added to the plate at 200 μL/well. The plate was incubated in an incubator at 37° C. for 90 min and then washed. The humanized antibodies in Table 8 and the reference antibody (chimeric antibody C245) were diluted to 1000 ng/mL with a diluent (2% BSA) with a dilution factor of not more than 10. Then, the chimeric antibodies and the reference antibody were serially 2.5-fold diluted on a sample dilution plate. All the chimeric antibody solutions and the reference antibody solution were added into plates at 100 μL/well, and the plates were incubated in a thermostat incubator at 37° C. for 60 min and washed. An HRP-conjugated goat anti-human antibody IgG (manufacturer: Sigma, Cat. No. A0170; Fc specificity) was diluted 5000-fold with 2% BSA and added into the plates at 100 μL/well, and the plates were incubated in the thermostat incubator at 37° C. for 60 min and washed. Chromogenic reagent TMB was carefully added at 100 μL/well to avoid bubbles, and the system was incubated at 37° C. for 15 min away from light for chromogenic reaction. Finally, a 2 M hydrochloric acid solution was added at 100 μL/well to stop the reaction while avoiding bubbles, and the plates were read on a microplate reader within 10 min (wavelength: 450/620 nm).
row,Binder,"Relative binding activity, %"
1,B1,78%
2,B2,73%
3,B3,73%
4,B4,72%
5,B5,68%
6,B6,14%
7,B7,109%
8,B8,34%
9,B9,84%
10,B10,68%
11,B11,88%
12,B12,56%
13,B13,44%
14,B14,80%
15,B15,65%
16,B16,87%
17,B17,40%
18,B18,102%
19,B19,76%

row,Binder,"Relative binding activity, %"
1,B20,45%
2,B21,58%
3,B22,73%
4,B23,58%
5,B24,33%
6,B25,11%
7,B26,98%
8,B27,83%
9,B28,79%
10,B29,94%
11,B30,86%
12,B31,87%
13,B32,64%
14,B33,56%
15,B34,70%
16,B35,49%
17,B36,73%
18,B37,65%
19,B38,84%
